Source: article PMC5540154

Target: D. melanogaster Isu (fIscU) (D. melanogaster) (UniProt Q9VHK6)
Experiment: SEC

Substance: D. melanogaster Isu (fIscU) (from UniProt Q9VHK6 1-154) (natural protein)
- stoichiometry N: 2
